Measurements published in the supplement of paper PMC6757056.
± gives the standard deviation of the averaged measurements.

B1: library; a variant is named by its letters at N, in order (parent)
chain: GCUGUCACCGGUGUAUUACCCUAGUGGUCGACCGGUCUGAUGAGUCUNNNNNNAGACGAAACAGC

What was measured:
[1] = variants of: B1; assay: normalized RNA/DNA level with ligand (relative to sTRSVctl = 100) (log10 (% of sTRSVctl)); ligand: hypoxanthine (xanthine aptamer); higher = less ribozyme self-cleavage, higher mRNA level; details: ligand concentration (+) RNA-Seq: 5 mM, HEK293T, reporter: mCherry (pCS4076), ligand present: yes
How it was run: (§1)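 For each 6-well well, 4 µg of library plasmid encoding mCherry-linked ribozyme switches, or eGFP-linked ones in some ligand experiments, was transfected into HEK293T. Any ligand was added 1 h before transfection, and RNA was extracted with EDTA 72 h after it, then reverse-transcribed, amplified, barcoded and sequenced. RNA level was obtained by dividing RNA reads by DNA reads, normalizing to a spiked-in non-cleaving sequence or to the top sequences, then scaling and log-transforming. The top set was 25 sequences, scaling was ×100 with log10, and ≥100 DNA reads were required.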

[2] = variants of: B1; assay: normalized RNA/DNA level without ligand (relative to sTRSVctl = 100) (log10 (% of sTRSVctl)); ligand: hypoxanthine (xanthine aptamer); higher = less ribozyme self-cleavage, higher mRNA level; details: HEK293T, reporter: mCherry (pCS4076), ligand present: no
How it was run: as §1

Row | Variant | normalized RNA/DNA level with ligand (log10) [1] | normalized RNA/DNA level without ligand (log10) [2]
1 | GCUGUCACCGGUGUAUUACCCUAGUGGUCGACCGGUCUGAUGAGUCUCUUAUUAGACGAAACAGC [CUUAUU] | 1.95 ± 0.047 | 1.872 ± 0.005
2 | GCUGUCACCGGUGUAUUACCCUAGUGGUCGACCGGUCUGAUGAGUCUCUUCGUAGACGAAACAGC [CUUCGU] | 2.028 ± 0.012 | 1.9 ± 0.045
3 | GCUGUCACCGGUGUAUUACCCUAGUGGUCGACCGGUCUGAUGAGUCUCUUCGCAGACGAAACAGC [CUUCGC] | 1.954 ± 0.0084 | 1.88 ± 0.034
4 | GCUGUCACCGGUGUAUUACCCUAGUGGUCGACCGGUCUGAUGAGUCUGUUCCUAGACGAAACAGC [GUUCCU] | 1.99 ± 0.012 | 1.98 ± 0.056
5 | GCUGUCACCGGUGUAUUACCCUAGUGGUCGACCGGUCUGAUGAGUCUGUUCCAAGACGAAACAGC [GUUCCA] | 1.963 ± 0.017 | 1.9 ± 0.029
6 | GCUGUCACCGGUGUAUUACCCUAGUGGUCGACCGGUCUGAUGAGUCUGUUCCCAGACGAAACAGC [GUUCCC] | 1.99 ± 0.021 | 1.92 ± 0.044
7 | GCUGUCACCGGUGUAUUACCCUAGUGGUCGACCGGUCUGAUGAGUCUGUUCCGAGACGAAACAGC [GUUCCG] | 1.94 ± 0.028 | 1.72 ± 0.048
8 | GCUGUCACCGGUGUAUUACCCUAGUGGUCGACCGGUCUGAUGAGUCUCUUCCUAGACGAAACAGC [CUUCCU] | 1.98 ± 0.038 | 1.96 ± 0.032
9 | GCUGUCACCGGUGUAUUACCCUAGUGGUCGACCGGUCUGAUGAGUCUCUUCCAAGACGAAACAGC [CUUCCA] | 1.93 ± 0.043 | 1.91 ± 0.091
10 | GCUGUCACCGGUGUAUUACCCUAGUGGUCGACCGGUCUGAUGAGUCUCUUCAUAGACGAAACAGC [CUUCAU] | 1.921 ± 0.0074 | 1.88 ± 0.067
11 | GCUGUCACCGGUGUAUUACCCUAGUGGUCGACCGGUCUGAUGAGUCUCUUCAGAGACGAAACAGC [CUUCAG] | 1.92 ± 0.08 | 1.84 ± 0.07
12 | GCUGUCACCGGUGUAUUACCCUAGUGGUCGACCGGUCUGAUGAGUCUCUUCAAAGACGAAACAGC [CUUCAA] | 1.959 ± 0.013 | 1.82 ± 0.05
13 | GCUGUCACCGGUGUAUUACCCUAGUGGUCGACCGGUCUGAUGAGUCUAUUCUAAGACGAAACAGC [AUUCUA] | 1.92 ± 0.041 | 1.84 ± 0.062
14 | GCUGUCACCGGUGUAUUACCCUAGUGGUCGACCGGUCUGAUGAGUCUAUUCAAAGACGAAACAGC [AUUCAA] | 1.91 ± 0.047 | 1.82 ± 0.038
15 | GCUGUCACCGGUGUAUUACCCUAGUGGUCGACCGGUCUGAUGAGUCUAUUCAGAGACGAAACAGC [AUUCAG] | 1.87 ± 0.053 | 1.58 ± 0.025
16 | GCUGUCACCGGUGUAUUACCCUAGUGGUCGACCGGUCUGAUGAGUCUAUUCACAGACGAAACAGC [AUUCAC] | 1.953 ± 0.019 | 1.891 ± 0.0042
17 | GCUGUCACCGGUGUAUUACCCUAGUGGUCGACCGGUCUGAUGAGUCUGUUAUUAGACGAAACAGC [GUUAUU] | 1.971 ± 0.0054 | 1.916 ± 0.0092
18 | GCUGUCACCGGUGUAUUACCCUAGUGGUCGACCGGUCUGAUGAGUCUAUUCGAAGACGAAACAGC [AUUCGA] | 1.91 ± 0.042 | 1.738 ± 0.015
19 | GCUGUCACCGGUGUAUUACCCUAGUGGUCGACCGGUCUGAUGAGUCUAUUCGCAGACGAAACAGC [AUUCGC] | 1.96 ± 0.04 | 1.89 ± 0.023
20 | GCUGUCACCGGUGUAUUACCCUAGUGGUCGACCGGUCUGAUGAGUCUAUUCGUAGACGAAACAGC [AUUCGU] | 1.93 ± 0.0044 | 1.897 ± 0.018
21 | GCUGUCACCGGUGUAUUACCCUAGUGGUCGACCGGUCUGAUGAGUCUCUUCUAAGACGAAACAGC [CUUCUA] | 1.97 ± 0.051 | 1.85 ± 0.077

Row | Variant | normalized RNA/DNA level with ligand (log10) [1] | normalized RNA/DNA level without ligand (log10) [2]
22 | GCUGUCACCGGUGUAUUACCCUAGUGGUCGACCGGUCUGAUGAGUCUAUUCCAAGACGAAACAGC [AUUCCA] | 1.92 ± 0.02 | 1.86 ± 0.042
23 | GCUGUCACCGGUGUAUUACCCUAGUGGUCGACCGGUCUGAUGAGUCUAUUCCCAGACGAAACAGC [AUUCCC] | 1.9 ± 0.031 | 1.87 ± 0.03
24 | GCUGUCACCGGUGUAUUACCCUAGUGGUCGACCGGUCUGAUGAGUCUUUUCCCAGACGAAACAGC [UUUCCC] | 1.99 ± 0.024 | 1.96 ± 0.039
25 | GCUGUCACCGGUGUAUUACCCUAGUGGUCGACCGGUCUGAUGAGUCUUUUCCAAGACGAAACAGC [UUUCCA] | 1.95 ± 0.037 | 1.894 ± 0.0032
26 | GCUGUCACCGGUGUAUUACCCUAGUGGUCGACCGGUCUGAUGAGUCUUUUCCUAGACGAAACAGC [UUUCCU] | 2.05 ± 0.069 | 1.9175 ± 0.00088
27 | GCUGUCACCGGUGUAUUACCCUAGUGGUCGACCGGUCUGAUGAGUCUUUUCCGAGACGAAACAGC [UUUCCG] | 1.99 ± 0.063 | 1.83 ± 0.07
28 | GCUGUCACCGGUGUAUUACCCUAGUGGUCGACCGGUCUGAUGAGUCUGUUCAUAGACGAAACAGC [GUUCAU] | 1.908 ± 0.016 | 1.783 ± 0.012
29 | GCUGUCACCGGUGUAUUACCCUAGUGGUCGACCGGUCUGAUGAGUCUGUUCAGAGACGAAACAGC [GUUCAG] | 1.82 ± 0.054 | 1.55 ± 0.057
30 | GCUGUCACCGGUGUAUUACCCUAGUGGUCGACCGGUCUGAUGAGUCUGUUCACAGACGAAACAGC [GUUCAC] | 1.96 ± 0.05 | 1.85 ± 0.023
31 | GCUGUCACCGGUGUAUUACCCUAGUGGUCGACCGGUCUGAUGAGUCUUUUCGCAGACGAAACAGC [UUUCGC] | 1.95 ± 0.023 | 1.92 ± 0.047
32 | GCUGUCACCGGUGUAUUACCCUAGUGGUCGACCGGUCUGAUGAGUCUUUUCGUAGACGAAACAGC [UUUCGU] | 1.96 ± 0.0091 | 1.851 ± 0.0071
33 | GCUGUCACCGGUGUAUUACCCUAGUGGUCGACCGGUCUGAUGAGUCUUUUCGAAGACGAAACAGC [UUUCGA] | 1.953 ± 0.013 | 1.915 ± 0.006
34 | GCUGUCACCGGUGUAUUACCCUAGUGGUCGACCGGUCUGAUGAGUCUUUUCGGAGACGAAACAGC [UUUCGG] | 1.964 ± 0.012 | 1.94 ± 0.072
35 | GCUGUCACCGGUGUAUUACCCUAGUGGUCGACCGGUCUGAUGAGUCUGUUCGGAGACGAAACAGC [GUUCGG] | 1.908 ± 0.019 | 1.604 ± 0.0043
36 | GCUGUCACCGGUGUAUUACCCUAGUGGUCGACCGGUCUGAUGAGUCUGUUCGAAGACGAAACAGC [GUUCGA] | 1.95 ± 0.043 | 1.76 ± 0.023
37 | GCUGUCACCGGUGUAUUACCCUAGUGGUCGACCGGUCUGAUGAGUCUGUUCGCAGACGAAACAGC [GUUCGC] | 1.97 ± 0.025 | 1.96 ± 0.048
38 | GCUGUCACCGGUGUAUUACCCUAGUGGUCGACCGGUCUGAUGAGUCUUUUCAUAGACGAAACAGC [UUUCAU] | 1.915 ± 0.013 | 1.838 ± 0.0065
39 | GCUGUCACCGGUGUAUUACCCUAGUGGUCGACCGGUCUGAUGAGUCUUUUCAAAGACGAAACAGC [UUUCAA] | 1.9299 ± 0.00082 | 1.866 ± 0.015
40 | GCUGUCACCGGUGUAUUACCCUAGUGGUCGACCGGUCUGAUGAGUCUUUUCACAGACGAAACAGC [UUUCAC] | 1.9884 ± 0.0013 | 1.91 ± 0.031
41 | GCUGUCACCGGUGUAUUACCCUAGUGGUCGACCGGUCUGAUGAGUCUUUUCAGAGACGAAACAGC [UUUCAG] | 1.9 ± 0.021 | 1.71 ± 0.042
42 | GCUGUCACCGGUGUAUUACCCUAGUGGUCGACCGGUCUGAUGAGUCUGUUCUAAGACGAAACAGC [GUUCUA] | 1.949 ± 0.011 | 1.89 ± 0.039
